The values below come from paper PMC4515812.

First the molecules themselves.
B1: Sp1 site -403/-382 probe (Sp1_EMSA2) (dsDNA)
DNA 1: CGGGGCCCCGCCCGGGCCAGCC
DNA 2: GGCTGGCCCGGGCGGGGCCCCG
B2: Sp1 consensus probe (Sp1_EMSA1) (dsDNA)
DNA 1: ATTCGATCGGGGCGGGGCGAGC
DNA 2: GCTCGCCCCGCCCCGATCGAAT
B3: Sp1 site -336/-315 probe (Sp1_EMSA3) (dsDNA)
DNA 1: GGGGGCCTCGCCCCTTTGGGGC
DNA 2: GCCCCAAAGGGGCGAGGCCCCC

In this data set the target is Sp1 (recombinant, Sigma-Aldrich SRP2030) (UniProt P08047 1-785). Kind of data set: EMSA.
Sequence of Sp1 (recombinant, Sigma-Aldrich SRP2030) (P08047 whole entry): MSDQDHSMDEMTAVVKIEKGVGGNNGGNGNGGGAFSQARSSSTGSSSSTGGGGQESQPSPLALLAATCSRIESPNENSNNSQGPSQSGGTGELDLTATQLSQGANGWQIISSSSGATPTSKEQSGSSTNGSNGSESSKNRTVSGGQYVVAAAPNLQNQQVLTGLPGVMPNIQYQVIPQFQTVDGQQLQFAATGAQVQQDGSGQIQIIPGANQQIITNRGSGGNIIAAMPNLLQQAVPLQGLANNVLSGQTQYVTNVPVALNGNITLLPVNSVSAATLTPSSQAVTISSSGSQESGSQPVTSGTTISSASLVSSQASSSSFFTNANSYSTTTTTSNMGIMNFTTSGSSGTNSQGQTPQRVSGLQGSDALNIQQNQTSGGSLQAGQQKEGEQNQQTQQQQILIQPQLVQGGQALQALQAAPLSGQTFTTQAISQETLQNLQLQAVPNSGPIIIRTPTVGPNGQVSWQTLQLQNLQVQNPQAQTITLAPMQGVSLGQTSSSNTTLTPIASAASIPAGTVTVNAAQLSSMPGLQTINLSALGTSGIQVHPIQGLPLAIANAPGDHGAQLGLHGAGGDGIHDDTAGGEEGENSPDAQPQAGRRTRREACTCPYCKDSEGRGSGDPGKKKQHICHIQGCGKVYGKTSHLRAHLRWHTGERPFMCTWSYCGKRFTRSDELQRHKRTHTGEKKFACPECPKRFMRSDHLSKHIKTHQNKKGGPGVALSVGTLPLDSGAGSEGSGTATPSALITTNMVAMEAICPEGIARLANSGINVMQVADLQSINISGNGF
Consider B1, for which the binding result is recorded as “binds”.
Turning to B2, the binding result is recorded as “binds”.
Then B3, with “binds”.
